From patent publication US6365161 (Bristol-Myers Squibb, dated 2002)

Molecular target: T1, carcinoembryonic antigen (CEA) (UniProt P06731 35-685)
T1 sequence (looked up): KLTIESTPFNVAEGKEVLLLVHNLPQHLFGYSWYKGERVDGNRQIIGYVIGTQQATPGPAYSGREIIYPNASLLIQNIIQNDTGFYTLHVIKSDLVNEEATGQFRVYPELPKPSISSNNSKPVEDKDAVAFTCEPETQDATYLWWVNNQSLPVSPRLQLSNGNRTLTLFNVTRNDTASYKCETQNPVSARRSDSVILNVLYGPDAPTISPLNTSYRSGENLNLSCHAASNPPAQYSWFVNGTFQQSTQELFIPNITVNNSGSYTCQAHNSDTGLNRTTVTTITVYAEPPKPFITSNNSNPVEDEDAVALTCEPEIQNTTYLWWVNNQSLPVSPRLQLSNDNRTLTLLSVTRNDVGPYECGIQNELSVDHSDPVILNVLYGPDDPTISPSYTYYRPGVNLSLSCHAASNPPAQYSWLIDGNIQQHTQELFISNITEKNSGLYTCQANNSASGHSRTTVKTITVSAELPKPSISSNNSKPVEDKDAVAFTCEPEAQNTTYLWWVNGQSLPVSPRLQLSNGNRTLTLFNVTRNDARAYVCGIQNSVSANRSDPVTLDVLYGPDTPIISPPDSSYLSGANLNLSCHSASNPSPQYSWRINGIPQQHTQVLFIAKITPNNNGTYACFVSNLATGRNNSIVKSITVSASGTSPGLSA
Experiment: bispecific ELISA, plates coated with CEA, detection with soluble FcγRI/IgM-µ
Excerpt: ELISA plates are coated with CEA and the blocked with 5% PBA.

binding result: no binding
B1: single chain antibody H22 encoded by construct 225 (scFv)
scFv: DIQLVESGGGVVQPGRSLRLSCSSSGFIFSDNYMYWVRQAPGKGLEWVATISDGGSYTYYPDSVKGRFTISRDNSKNTLFLQMDSLRPEDTGVYFCARGYYRYEGAMDYWGQGTPVTVSSGGGGSGGGGSGGGGSDIQLTQSPSSLSASVGDRVTITCKSSQSVLYSSNQKNYLAWYQQKPGKAPKLLIYWASTRESGVPSRFSGSGSGTDFTFTISSLQPEDIATYYCHQYLSSWTFGQGTKVEIKSSCSSGGGGSDIAAAEQKLISEEDLNGAAHHHHHH
notes: also called single chain H22 antibody
